Source: US6136598

How the values were obtained:
[1] = target: Mus dunni endogenous virus (MDEV) receptor on M. dunni cells (Mus dunni)
[2] = target: Mus dunni endogenous virus (MDEV) receptor on M. dunni cells (Mus dunni); remark: listed apart in the source
[3] = target: Mus dunni endogenous virus (MDEV) receptor on M. dunni cells (Mus dunni); remark: listed apart in the source
[4] = target: Mus dunni endogenous virus (MDEV) receptor on primary human dermal fibroblasts (human)

**Q.** Which LAPSN titer, BIRV pseudotype on M. dunni cells infected with MDEV (8 × 10^4 on uninfected cells) [1] does the source give for “Balb/c 3T3 IdU-induced retrovirus (BIRV) envelope” here?
**A.** The LAPSN titer, BIRV pseudotype on M. dunni cells infected with MDEV (8 × 10^4 on uninfected cells) was 60000 FFU/ml.

**Q.** For “Mus dunni endogenous virus (MDEV) envelope protein”, which log10 of the fold interference, LAPSN(MDEV) on dunni/LN cells infected with MDEV (log10 of the fold interference) [2] is on record?
**A.** The log10 of the fold interference, LAPSN(MDEV) on dunni/LN cells infected with MDEV (log10 of the fold interference) was 5.5.

**Q.** And the LAPSN titer, MDEV pseudotype on M. dunni cells infected with MDEV (6 × 10^5 on uninfected cells) [1]?
**A.** Its LAPSN titer, MDEV pseudotype on M. dunni cells infected with MDEV (6 × 10^5 on uninfected cells) is 3 FFU/ml.

**Q.** And the Fold Interference, LAPSN(PD223) titer on dunni/N2 against dunni/N2 + MDEV (fold interference) [3]?
**A.** The Fold Interference, LAPSN(PD223) titer on dunni/N2 against dunni/N2 + MDEV (fold interference) was greater than 20000.

**Q.** What about the inhibition of transduction, LAPSN(MDEV) on HDF cells infected with MDEV [4] of the same substance?
**A.** The inhibition of transduction, LAPSN(MDEV) on HDF cells infected with MDEV was 100 fold.

**Q.** With “envelope protein of NZB xenotropic virus” as the substance, how does the LAPSN titer, MDEV pseudotype on M. dunni cells infected with xenotropic virus (6 × 10^5 on uninfected cells) [1] read?
**A.** The LAPSN titer, MDEV pseudotype on M. dunni cells infected with xenotropic virus (6 × 10^5 on uninfected cells) was 400000 FFU/ml.

**Q.** For “envelope protein of amphotropic MLV strain 4070A”, which Fold Interference, LAPSN(PA317) titer on dunni/N2 against dunni/N2 + MDEV (fold interference) [3] is on record?
**A.** The Fold Interference, LAPSN(PA317) titer on dunni/N2 against dunni/N2 + MDEV (fold interference) was 1.

**Q.** “envelope protein of amphotropic virus (AM-MLV)” was tested. Which LAPSN titer, MDEV pseudotype on M. dunni cells infected with amphotropic virus (6 × 10^5 on uninfected cells) [1] did it give?
**A.** Its LAPSN titer, MDEV pseudotype on M. dunni cells infected with amphotropic virus (6 × 10^5 on uninfected cells) is 400000 FFU/ml.

**Q.** How did the LAPSN titer, MDEV pseudotype on M. dunni cells infected with polytropic virus (6 × 10^5 on uninfected cells) [1] turn out when “envelope protein of polytropic (MCF) virus strain 98D” was run?
**A.** Its LAPSN titer, MDEV pseudotype on M. dunni cells infected with polytropic virus (6 × 10^5 on uninfected cells) is 400000 FFU/ml.
